Measured values reported in US20250145723A1 (MINGHUI PHARMACEUTICAL HANGZHOU, published 2025).
Where a chain is given by its changes, count along the chain named.

B1: 5115-H4-M34-Fc (Fc fusion)
chain: EVQLVESGGGLVQPGGSLRLSCAASGRTFSSFVMAWFRQAPGKGLEFVSAISGSGSRARYADSVKGRFTISRDNSKNTLYLQMNSLRAEDTAVYYCAANPRRATPDLTQYAYWGQGTLVTVSS
notes: VHH-Fc; Fc not specified; not shown: Fc
B2: 5115-H4-Fc (Fc fusion)
chain: B1 chain with A35S, R59Y, L107Y
notes: Humanized VHH-Fc; Fc not specified; not shown: Fc
B3: 5115-H4-M34-8-Fc (Fc fusion)
chain: B1 chain with S31T, A58S
notes: as for B1
B4: 5115-H4-M34-16-Fc (Fc fusion)
chain: B1 chain with A35G, S54F
notes: as for B1
B5: 5115-H4-M41-Fc (Fc fusion)
chain: B1 chain with A35G, L107Y, A111L
notes: as for B1
B6: 5115-H4-M48-Fc (Fc fusion)
chain: B1 chain with G16D, S31R, A35S, R59Y, T108R
notes: as for B1
B7: 5115-H4-M34-4-Fc (Fc fusion)
chain: B1 chain with R27G, S54F
notes: as for B1
B8: 5115-H1-M35-Fc (Fc fusion)
chain: B1 chain with A35S, G44E, L45R, R59L, T108R
notes: as for B1
B9: 5115-H1-M39-Fc (Fc fusion)
chain: B1 chain with A35S, G44E, L45R, A58F, T108Q
notes: as for B1
B10: 5115-H1-M36-Fc (Fc fusion)
chain: B1 chain with S30P, A35S, G44E, L45R, R59Y, T108R
notes: as for B1
B11: 5115-H4-M25-Fc (Fc fusion)
chain: B1 chain with R27V, A35S, R59L
notes: as for B1
B12: 5115-H4-M34-14-Fc (Fc fusion)
chain: B1 chain with G26R, R27G, S56K, R57V
notes: as for B1
B13: 5115-H4-M3-Fc (Fc fusion)
chain: B1 chain with L107Y
notes: as for B1
B14: 5115-H4-M34-7-Fc (Fc fusion)
chain: B1 chain with S56R, R57Q, T108S, Q109R
notes: as for B1
B15: 5115-H4-M34-3-Fc (Fc fusion)
chain: B1 chain with R27G, A111K
notes: as for B1
B16: 5115-H1-M10-Fc (Fc fusion)
chain: B1 chain with R27G, A35S, G44E, L45R, R59Y, D106G, L107F
notes: as for B1
B17: 5115-H4-M52-Fc (Fc fusion)
chain: B1 chain with G26S, A35S, R59N
notes: as for B1
B18: 5115-H1-M40-Fc (Fc fusion)
chain: B1 chain with A35S, G44E, L45R, A58Q, T108R
notes: as for B1
B19: 5115-H4-M34-9-Fc (Fc fusion)
chain: B1 chain with R27P, T28A
notes: as for B1
B20: 5115-H4-M39-Fc (Fc fusion)
chain: B1 chain with A35S, A58S, T108R
notes: as for B1
B21: 5115-H4-M34-15-Fc (Fc fusion)
chain: B1 chain with F32L
notes: as for B1
B22: 5115-H4-M28-Fc (Fc fusion)
chain: B1 chain with A35S, S54G, R59Y, T69A, T108R
notes: as for B1
B23: 5115-H4-M34-12-Fc (Fc fusion)
chain: B1 chain with T28P, R102Y
notes: as for B1
B24: 5115-H1-M3-Fc (Fc fusion)
chain: B1 chain with A35S, G44E, L45R
notes: as for B1
B25: 5115-H1-M17-Fc (Fc fusion)
chain: B1 chain with A35S, G44E, L45R, A58S, T108I
notes: as for B1
B26: 5115-H4-M34-11-Fc (Fc fusion)
chain: B1 chain with G26T
notes: as for B1
B27: 5115-H4-M34-5-Fc (Fc fusion)
chain: B1 chain with G26M, R27T, S54H
notes: as for B1
B28: 5115-H4-M34-1-Fc (Fc fusion)
chain: B1 chain with S30N, S31R, S56Q
notes: as for B1
B29: 5115-H1-Fc (Fc fusion)
chain: B1 chain with A35S, G44E, L45R, R59Y, L107Y
notes: as for B2
B30: 5115-H6-Fc (Fc fusion)
chain: B1 chain with A35M, G44E, L45R, R59Y, L107Y
notes: as for B2
B31: 5115-H2-Fc (Fc fusion)
chain: B1 chain with A35S, L45R, R59Y, L107Y
notes: as for B2
B32: 5115-H3-Fc (Fc fusion)
chain: B1 chain with A35S, G44E, R59Y, L107Y
notes: as for B2

target: human IGF-1R on BaF3 cells overexpressing human IGF-1R (human) (UniProt P08069); test: cell-based or functional assay; settings: not given
Sequence (P08069 31-1367): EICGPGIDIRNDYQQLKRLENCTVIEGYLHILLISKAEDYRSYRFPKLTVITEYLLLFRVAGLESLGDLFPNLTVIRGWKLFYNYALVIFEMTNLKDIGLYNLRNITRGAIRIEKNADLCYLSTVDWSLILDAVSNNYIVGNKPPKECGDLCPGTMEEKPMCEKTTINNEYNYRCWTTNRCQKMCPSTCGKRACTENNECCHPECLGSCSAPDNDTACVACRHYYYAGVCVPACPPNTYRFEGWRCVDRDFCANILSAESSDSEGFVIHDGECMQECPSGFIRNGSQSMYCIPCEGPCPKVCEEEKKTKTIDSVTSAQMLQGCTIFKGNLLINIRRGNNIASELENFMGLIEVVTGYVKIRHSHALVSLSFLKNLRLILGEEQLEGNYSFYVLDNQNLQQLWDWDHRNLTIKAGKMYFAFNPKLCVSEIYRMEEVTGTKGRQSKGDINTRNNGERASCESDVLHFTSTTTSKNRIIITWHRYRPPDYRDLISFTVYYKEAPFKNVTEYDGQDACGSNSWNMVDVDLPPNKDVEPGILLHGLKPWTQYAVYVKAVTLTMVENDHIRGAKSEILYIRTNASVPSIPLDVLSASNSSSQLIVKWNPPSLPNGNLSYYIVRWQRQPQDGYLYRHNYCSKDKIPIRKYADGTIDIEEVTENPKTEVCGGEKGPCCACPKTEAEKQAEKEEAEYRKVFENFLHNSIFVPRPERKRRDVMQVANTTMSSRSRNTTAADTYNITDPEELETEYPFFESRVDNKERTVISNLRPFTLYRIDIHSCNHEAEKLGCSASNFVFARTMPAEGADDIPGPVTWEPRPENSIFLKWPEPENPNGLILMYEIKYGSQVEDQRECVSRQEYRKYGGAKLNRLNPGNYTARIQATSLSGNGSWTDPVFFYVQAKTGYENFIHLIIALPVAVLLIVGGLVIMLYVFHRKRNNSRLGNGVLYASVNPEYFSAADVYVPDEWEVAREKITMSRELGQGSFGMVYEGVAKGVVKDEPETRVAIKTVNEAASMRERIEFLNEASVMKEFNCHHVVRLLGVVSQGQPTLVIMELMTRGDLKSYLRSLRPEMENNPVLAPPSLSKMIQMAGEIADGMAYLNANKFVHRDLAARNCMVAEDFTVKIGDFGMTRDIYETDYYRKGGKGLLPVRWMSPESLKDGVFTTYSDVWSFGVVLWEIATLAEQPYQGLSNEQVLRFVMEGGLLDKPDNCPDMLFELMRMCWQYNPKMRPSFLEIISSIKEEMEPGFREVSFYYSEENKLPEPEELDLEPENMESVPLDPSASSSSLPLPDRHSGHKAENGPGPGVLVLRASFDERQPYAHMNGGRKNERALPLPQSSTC

Molecule | IC50, inhibition of IGF-1-induced proliferation of BaF3 cells overexpressing human IGF-1R [ng/mL]
Teprotumumab (antibody) | 121
B1 | 8.16

same assay, conditions: record 2

Molecule | IC50, inhibition of IGF-1-induced proliferation of BaF3 cells overexpressing human IGF-1R [ng/mL]
B1 | 8.51

target: T1, recombinant human IGF-1R-his (human, UniProt P08069 31-932); test: competition ELISA, coated hIGF-1R-his, competitor IGF-2 (N-Avi & N-Fc); settings: not given
T1 construct: Recombinant his-tagged protein; also called hIGF-1R-his; hIGF1R-his; not shown: his tag
Description: (§1) Recombinant human IGF-1R-his antigens (5 μg/mL) were added to a 96-well plate for coating overnight at 4° C. The plate was washed 4 times with 1×TBST, and then was blocked with 2% BSA at 37° C. for 1.5 h. The plate was washed four times with 1×TBST. A volume of 50 μL of biotinylated IGF-1-Fc (2.5 μg/mL) or IGF-2 (N-Avi & N-Fc 4 μg/mL), and 50 μL of nanobody-Fc fusion proteins of different concentrations (with a starting concentration of 10 μg/mL, 2-fold serially diluted) were added to the 96-well plate and incubated at 37° C. for 1 h. The plate was washed 4 times with 1×TBST, horseradish peroxidase-labeled Streptavidin (Thermo, 21126) was added and incubated at 37° C. for 1 h, and the plate was washed 4 times with 1×TBST. TMB substrate solution was added at 200 μL/well for color development in the dark for 20 min, 50 μL of 1 M H₂SO₄ was added to terminate the reaction, and the OD₄₅₀ was read using a microplate reader. A curve was fit and the IC₅₀ value was calculated using Graphpad Prism software.

T1 sequence (P08069 31-932 limits assumed): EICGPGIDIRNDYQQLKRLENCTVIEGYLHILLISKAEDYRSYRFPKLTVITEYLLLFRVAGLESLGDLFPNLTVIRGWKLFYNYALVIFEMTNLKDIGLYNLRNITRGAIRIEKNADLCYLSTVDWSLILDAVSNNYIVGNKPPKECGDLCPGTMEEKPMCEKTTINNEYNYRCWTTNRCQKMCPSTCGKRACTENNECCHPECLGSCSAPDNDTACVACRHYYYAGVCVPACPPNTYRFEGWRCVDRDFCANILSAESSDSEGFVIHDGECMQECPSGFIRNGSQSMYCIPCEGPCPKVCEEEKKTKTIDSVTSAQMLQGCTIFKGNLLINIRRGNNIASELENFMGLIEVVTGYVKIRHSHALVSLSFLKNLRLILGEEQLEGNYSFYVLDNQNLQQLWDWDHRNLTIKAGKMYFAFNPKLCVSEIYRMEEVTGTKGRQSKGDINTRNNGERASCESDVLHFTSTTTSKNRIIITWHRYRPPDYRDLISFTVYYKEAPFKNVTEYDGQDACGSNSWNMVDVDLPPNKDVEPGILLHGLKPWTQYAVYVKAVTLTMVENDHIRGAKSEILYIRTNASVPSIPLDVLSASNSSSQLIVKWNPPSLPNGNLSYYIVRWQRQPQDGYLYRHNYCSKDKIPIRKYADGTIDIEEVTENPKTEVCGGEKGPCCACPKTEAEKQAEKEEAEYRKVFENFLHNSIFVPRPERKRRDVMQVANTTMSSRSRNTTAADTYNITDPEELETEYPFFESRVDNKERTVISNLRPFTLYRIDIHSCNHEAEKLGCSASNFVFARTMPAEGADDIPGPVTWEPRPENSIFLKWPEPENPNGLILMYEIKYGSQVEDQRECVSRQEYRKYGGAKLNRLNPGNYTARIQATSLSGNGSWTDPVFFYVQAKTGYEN

Molecule | IC50 [ng/mL]
B2 | 152
B1 | 237

target: T1, recombinant human IGF-1R-his; test: ELISA, coated hIGF-1R-his; settings: not given
Description: The binding activity of the nanobody-Fc fusion proteins obtained after two rounds of mutant construction with the antigen proteins (recombinant human IGF-1R-His) was detected by an ELISA method: 2 μg/mL recombinant human IGF1R-His antigen proteins were added to a 96-well ELISA plate, at 30 μL/well, for coating overnight at 4° C. The plate was washed three times with PBST. PBS containing 5% skim milk powder was added for blocking at room temperature for 2 h. The plate was washed three times with PBST. The nanobody-Fc fusion proteins were serially diluted 3-fold, and the nanobody-Fc fusion proteins of different concentrations were added to each well at 30 μL/well and incubated at room temperature for 1 h. The plate was washed three times with PBST, and horseradish peroxidase-labeled anti-human Fc antibodies were added at 30 μL/well and incubated at room temperature for 50 min. The plate was washed three times with PBST. TMB substrate solution was added at 30 μL/well for color development in the dark for 1-5 min, 30 μL of 2 M hydrochloric acid was added to terminate the reaction, and the OD₄₅₀ was read using a microplate reader. Curve fitting was conducted and the EC₅₀ value was calculated using Graphpad Prism software.

Molecule | EC50
B3 | 3.79 ng/mL
B4 | 2.4 ng/mL
B5 | 175 pM
B6 | 475 pM
B7 | 6.24 ng/mL
B8 | 1.47 ng/mL
B1 | 52 pM
B9 | 1.06 ng/mL
B10 | 1.43 ng/mL
B11 | 215 pM
B12 | 3.28 ng/mL
B13 | 330 pM
B14 | 5.36 ng/mL
B15 | 3.64 ng/mL
B16 | 1.7 ng/mL
B17 | 183 pM
B18 | 1.23 ng/mL
B19 | 4.05 ng/mL
B20 | 210 pM
B21 | 2.25 ng/mL
B22 | 299 pM
B23 | 3.33 ng/mL
B24 | 1.22 ng/mL
B25 | 1.84 ng/mL
B26 | 2.33 ng/mL
B27 | 2.15 ng/mL
B28 | 3.92 ng/mL

target: T1, recombinant human IGF-1R-his; test: ELISA, coated hIGF-1R-his; settings: not given; remark: another data set of the same source
Description: Recombinant human IGF-1R-his antigens (2 μg/mL) were added to a 96-well plate for coating overnight at 4° C. The plate was washed three times with PBST, and then was blocked with PBST containing 5% skimmed milk powder at room temperature for 2 h. The blocking solution was discarded, the plate was washed three times with PBST, and then 30 μL of nanobody-Fc fusion proteins of different concentrations were added and incubated at room temperature for 1 h. The plate was washed 3 times with PBST, horseradish peroxidase-labeled anti-human Fc antibodies (abcam, ab97225) were added at 30 μL/well and incubated at room temperature for 1 h, and the plate was washed 3 times with PBST. TMB substrate solution was added at 30 μL/well for color development in the dark for 5-30 min, 30 μL of 2 M H₂SO₄ was added to terminate the reaction, and the OD₄₅₀ was read using a microplate reader. A curve was fit and the EC₅₀ value was calculated using Graphpad Prism software.

Molecule | EC50 [ng/mL]
B29 | 36.9
B30 | 92.9
B2 | 82.8
B31 | 65.2
B32 | 92.5

target: T1, recombinant human IGF-1R-his; test: competition ELISA, coated hIGF-1R-his, competitor biotinylated IGF-1-Fc; settings: not given
Description: as §1

Molecule | IC50 [ng/mL]
B2 | 227
B1 | 269

target: T1, recombinant human IGF-1R-his; test: SPR (BIAcore), hIGF-1R-his on CM5 chip, Test 1; settings: not given
Description: The affinity of the nanobody fusion proteins to recombinant human IGF-1R was detected using a BIAcore instrument. […] The flow rate was set to 10 μL/min. The chip activation time of a mixture of EDC and NHS was the default value of 420 s. The recombinant human IGF-1R-his was coupled to 800 RU on a CM5 chip under the preset coupling mode, and unbound activated groups were blocked with ethanolamine. Two-fold serially diluted nanobody-Fc fusion proteins (five concentrations of each fusion protein were detected) were injected sequentially at a flow rate of 50 μL/min at 25° C., with an association time of 120 s and a dissociation time of 600 s. A curve was fit with a 1:1 Langmuir binding model using the BIAcore T200 analysis software to determine kinetic constants such as the association rate constant, the dissociation rate constant, and the association dissociation constant.

Molecule | Kd [pM] | koff [s⁻¹] | kon [M⁻¹ s⁻¹]
B29 | 31700 | 0.00211 | 66800
B1 | 86.2 | 0.000274 | 3.18e+06
B16 | 1150 | 0.00123 | 1.07e+06
B24 | 1850 | 0.00207 | 1.12e+06
B25 | 101 | 0.000465 | 4.62e+06
